Test results reported in US20050220762A1.

Columns and labels:
[1] = biological target: human growth hormone receptor on IM-9 cells (human) (UniProt P10912); assay: cell-based or functional assay
[2] = biological target: T1, full length rat GHR (L43R) on BAF3 cells (rat) (UniProt P16310); assay: cell-based or functional assay
T1 sequence (looked up): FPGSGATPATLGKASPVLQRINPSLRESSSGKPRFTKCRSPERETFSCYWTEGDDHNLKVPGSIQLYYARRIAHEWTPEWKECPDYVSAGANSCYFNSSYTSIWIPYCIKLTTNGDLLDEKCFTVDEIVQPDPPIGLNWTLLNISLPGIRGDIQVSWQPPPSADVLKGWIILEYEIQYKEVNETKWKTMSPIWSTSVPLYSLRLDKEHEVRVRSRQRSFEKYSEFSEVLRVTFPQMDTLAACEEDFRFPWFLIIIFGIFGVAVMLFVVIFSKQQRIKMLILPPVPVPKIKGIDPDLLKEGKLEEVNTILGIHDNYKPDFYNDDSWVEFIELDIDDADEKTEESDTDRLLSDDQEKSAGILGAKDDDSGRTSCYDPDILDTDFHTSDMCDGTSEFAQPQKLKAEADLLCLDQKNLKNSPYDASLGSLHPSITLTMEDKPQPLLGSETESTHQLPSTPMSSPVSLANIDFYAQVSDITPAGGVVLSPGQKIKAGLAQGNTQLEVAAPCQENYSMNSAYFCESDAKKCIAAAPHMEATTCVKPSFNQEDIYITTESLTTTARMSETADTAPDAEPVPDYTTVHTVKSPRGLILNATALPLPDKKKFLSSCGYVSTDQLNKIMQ

UniProt P10912, sequence (P10912 19-638): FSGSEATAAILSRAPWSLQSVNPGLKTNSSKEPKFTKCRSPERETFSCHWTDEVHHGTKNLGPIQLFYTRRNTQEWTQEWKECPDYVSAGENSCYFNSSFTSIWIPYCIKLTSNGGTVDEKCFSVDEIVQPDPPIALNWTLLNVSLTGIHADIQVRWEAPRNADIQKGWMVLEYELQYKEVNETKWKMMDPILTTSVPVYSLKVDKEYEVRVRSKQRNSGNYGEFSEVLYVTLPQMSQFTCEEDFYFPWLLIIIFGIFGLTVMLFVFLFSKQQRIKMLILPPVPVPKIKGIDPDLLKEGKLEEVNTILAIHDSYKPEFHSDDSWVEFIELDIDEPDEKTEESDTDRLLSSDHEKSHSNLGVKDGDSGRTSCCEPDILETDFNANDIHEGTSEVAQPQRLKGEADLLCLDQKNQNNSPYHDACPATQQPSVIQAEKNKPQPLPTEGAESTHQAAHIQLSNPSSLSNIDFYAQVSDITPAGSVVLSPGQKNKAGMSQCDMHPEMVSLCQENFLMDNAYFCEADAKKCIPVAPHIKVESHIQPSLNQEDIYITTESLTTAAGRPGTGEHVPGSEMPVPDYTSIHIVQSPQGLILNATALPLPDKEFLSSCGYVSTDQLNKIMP

pSTAT5 EC50 (nM), IM-9; WHO hGH expressed as unity [1] [nM]	Proliferation EC50 (nM), BrdU, rat GHR (L43R) BAF3 cells; WHO hGH expressed as unity [2] [nM]	Substance
23.8	4.6	hGH G131pAF linked to 30 kDa PEG (from UniProt P01241 27-217) (ligand)
20.6	5.3	hGH K145pAF linked to 30 kDa PEG (from UniProt P01241 27-217) (ligand)
5.3		hGH R134pAF linked to 20 kDa PEG (from UniProt P01241 27-217) (ligand)
53.3	24	hGH Y35pAF linked to 40 kDa PEG (from UniProt P01241 27-217) (ligand)
12.3	6.6	hGH Y143pAF linked to 30 kDa PEG (from UniProt P01241 27-217) (ligand)
